Test results from US20250177546A1 (SANYOU BIOPHARMACEUTICALS, published 2025).
Changes are numbered by the printed parent chain. One block for each binder: values may come before it.

Columns and labels:
[1] = molecular target: T1, huROR1-His (human ROR1 ECD AA30-406 with C-terminal His tag, made in house) (human, UniProt Q01973 30-406); assay: ELISA, huROR1-His coated plate, goat anti-human Fc-HRP, OD450
T1 construct: range 30-406; Expressed in HEK293; also called antigen protein huROR1-His; not shown: C-terminal His tag
T1 sequence (Q01973 30-406 limits assumed): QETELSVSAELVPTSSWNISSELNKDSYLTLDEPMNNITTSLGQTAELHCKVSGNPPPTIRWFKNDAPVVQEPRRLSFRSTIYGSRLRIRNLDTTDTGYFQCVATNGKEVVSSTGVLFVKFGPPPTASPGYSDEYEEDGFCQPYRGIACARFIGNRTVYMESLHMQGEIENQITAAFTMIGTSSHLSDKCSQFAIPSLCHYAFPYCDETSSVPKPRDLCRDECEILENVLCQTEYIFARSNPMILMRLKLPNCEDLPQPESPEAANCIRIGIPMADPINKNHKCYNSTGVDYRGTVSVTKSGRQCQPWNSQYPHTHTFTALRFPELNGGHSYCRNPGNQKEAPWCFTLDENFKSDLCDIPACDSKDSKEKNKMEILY

[2] = molecular target: T1, huROR1-His (human ROR1 ECD AA30-406 …); assay: as above; remark: listed apart in the source
[3] = molecular target: T2, human ROR1 on cells (full-length human ROR1 on huROR1-HEK293 cells; human ROR1 on A549 and HT-29 tumor cells) (human, UniProt Q01973 30-937); assay: flow cytometry (FACS) on A549 tumor cells, anti-human IgG-Fc secondary antibody, MFI
T2 construct: whole, on cells; also called hROR1-HEK293T; A549 tumor cells
T2 sequence (Q01973 30-937): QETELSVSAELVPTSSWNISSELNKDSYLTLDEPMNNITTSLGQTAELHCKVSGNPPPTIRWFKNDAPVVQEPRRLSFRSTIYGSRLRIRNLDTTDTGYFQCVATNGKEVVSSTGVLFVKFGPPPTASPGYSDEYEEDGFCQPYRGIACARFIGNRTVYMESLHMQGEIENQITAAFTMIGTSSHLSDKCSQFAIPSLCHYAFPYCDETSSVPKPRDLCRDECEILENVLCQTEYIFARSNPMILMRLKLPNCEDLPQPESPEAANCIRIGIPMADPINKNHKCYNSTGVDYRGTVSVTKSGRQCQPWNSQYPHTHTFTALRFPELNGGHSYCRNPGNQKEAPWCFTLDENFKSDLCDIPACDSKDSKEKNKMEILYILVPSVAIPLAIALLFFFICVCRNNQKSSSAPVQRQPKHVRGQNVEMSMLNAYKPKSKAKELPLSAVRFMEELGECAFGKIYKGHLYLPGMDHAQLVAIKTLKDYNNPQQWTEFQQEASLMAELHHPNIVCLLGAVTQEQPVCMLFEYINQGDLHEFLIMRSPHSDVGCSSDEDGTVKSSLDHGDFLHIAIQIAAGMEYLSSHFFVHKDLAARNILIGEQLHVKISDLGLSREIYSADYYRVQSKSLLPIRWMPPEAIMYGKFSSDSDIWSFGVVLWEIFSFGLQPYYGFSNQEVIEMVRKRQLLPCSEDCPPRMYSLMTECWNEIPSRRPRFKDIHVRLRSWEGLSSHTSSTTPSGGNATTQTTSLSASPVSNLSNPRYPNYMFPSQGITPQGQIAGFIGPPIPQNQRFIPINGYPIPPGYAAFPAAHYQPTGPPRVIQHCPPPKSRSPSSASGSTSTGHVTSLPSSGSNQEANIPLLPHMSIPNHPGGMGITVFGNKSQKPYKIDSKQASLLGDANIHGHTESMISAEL
Procedure: (§1) In this example, the binding activity of the antibody was evaluated using two types of cells, huROR1-HEK293 cells over-expressing human ROR1 and A549 tumor cells.
(§2) The specific method was as follows: huROR1-HEK293 cells or A549 cells in the logarithmic growth phase were prepared to a single-cell suspension, the density was adjusted to 1×10⁶ cells/mL, then 100 μL/well cells were added to a 96-well round-bottom plate, centrifuged at 4° C., 300 g, and the supernatant was removed. […] After the incubation, the cell mixture was washed three times and then 100 μL of 1:300 diluted secondary antibody Goat F(ab′)₂ Anti-Human IgG-Fc (abcam, ab98596) was added. The mixture was incubated at 4° C. in the dark for 30 min. After washing three times, the cells were detected by flow cytometry (Beckman, CytoFLEX AOO-1-1102).

[4] = molecular target: T1, huROR1-His (human ROR1 ECD AA30-406 …); assay: Gator (BLI) Advanced Kinetics; antibody 30 nM, huROR1-His 480-7.5 nM
Procedure: First, Q buffer was prepared with PBS (10 mM pH7.4) (IgG-free, purchased from Jackson ImmunoResearch Lab)+0.02% Tween 20 (purchased from thermo)+0.2% BSA (purchased from source culture), and the stock solution of the test antibody was diluted with the prepared Q buffer to a working solution with a final concentration of 30 nM, the stock solution of the antigen protein huROR1-His was prepared with Q buffer into a working solution with multiple dilutions (480, 240, 120, 60, 30, 15, 7.5 nM), and detection and analysis was then performed with Gator instrument and its accompanying software, selecting the Advanced Kinetics experimental mode is used.

[5] = molecular target: T1, huROR1-His (human ROR1 ECD AA30-406 …); assay: Biacore T200 SPR; huROR1-His amine-coupled (~75 RU), antibody 4 and 20 nM as analyte, 1:1 Langmuir fit
Procedure: Protein coupling: The huROR1-His protein produced in Example 1.2 was diluted to 5.6 μg/mL with NaAc buffer, pH 5.0, the flow rate was set to 10 μL/min, the chip activation time was set to the default value of 420 s with a mixture of 1-ethyl-(3-dimethylaminopropyl)carbodiimide (EDC) and N-hydroxysuccinimide (NHS), and the antigen protein huROR1-His was fixed to a level of about 75 RU using a coupling mode with a preset coupling amount, and the activated groups that were not bound to the test sample were blocked with ethanolamine.
Sample test conditions: PBS buffer (pH 7.4) containing 0.05% Tween-20 was used as the running buffer, and the running buffer was used as the control test sample. A series of antibody concentrations (4 nM, 20 nM) were set. During sample analysis, the flow rate was set to 30 μL/min, the binding time was 120 s, and the dissociation time was 360 s. After the dissociation was completed, 10 mM Gly-HCl (pH 2.0) was used for regeneration for 20 s to completely remove the antibody bound to the ligand.
Parameter fitting: The experiment was run in multiple cycles, with the response signal taking the analysis time as the horizontal axis and the response value as the vertical axis. After double reference subtraction, the obtained data were fitted by BiAcore T200 analysis software. The fitting model adopted was 1:1 Langmuir binding model, and Affinity metrics such as the binding dissociation constant were determined.

[6] = molecular target: T3, huROR2-His (human ROR2 ECD AA34-403 with C-terminal His tag) (human, UniProt Q01974 34-403); assay: ELISA, huROR2-His coated at 2 µg/mL, goat anti-human Fc-HRP, OD450
T3 construct: range 34-403; Expressed in HEK293; also called human ROR2 antigen protein; not shown: C-terminal His tag
T3 sequence (Q01974 34-403 limits assumed): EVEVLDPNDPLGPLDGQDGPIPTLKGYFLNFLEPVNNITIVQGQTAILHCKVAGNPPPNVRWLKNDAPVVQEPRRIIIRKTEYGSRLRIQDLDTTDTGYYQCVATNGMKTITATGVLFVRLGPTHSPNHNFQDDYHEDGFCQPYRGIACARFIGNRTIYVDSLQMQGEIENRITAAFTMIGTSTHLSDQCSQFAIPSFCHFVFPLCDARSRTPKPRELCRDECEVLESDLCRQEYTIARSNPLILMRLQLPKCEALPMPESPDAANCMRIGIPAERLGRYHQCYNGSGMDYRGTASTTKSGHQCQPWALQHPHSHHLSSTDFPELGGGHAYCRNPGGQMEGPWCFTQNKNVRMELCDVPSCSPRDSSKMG
Procedure: (§3) 96-well ELISA plate was coated with 2 μg/mL huROR2-His (30 μL/well) at 4° C. overnight. The next day, the plate was washed three times with PBST and then blocked with 5% skim milk for 2 h. […] After washing with PBST for three times, the secondary antibody Goat-anti-human Fc-HRP (abcam, ab97225) was added and incubated for 1 h. After incubation, the plate was washed with PBST for 6 times and TMB (SurModics, TMBS-1000-0) was added for color development. According to the color development results, 2 M HCl was added to terminate the reaction, and the data were read at OD450 using a microplate reader (Molecular Devices, SpecterMax 190).

[7] = molecular target: T1, huROR1-His (human ROR1 ECD AA30-406 …); assay: ELISA, huROR1-His coated at 2 µg/mL, goat anti-human Fc-HRP, OD450
Procedure: as §3, with “huROR1-His” for “huROR2-His”, “TMBS-1000-01)” for “TMBS-1000-0)”

[8] = molecular target: T2, human ROR1 on cells (full-length human …); assay: flow cytometry (FACS) on huROR1-HEK293 cells, anti-human IgG-Fc secondary antibody, MFI
Procedure: as §1, §2

[9] = molecular target: T4, MusROR1-His (mouse ROR1 ECD AA30-406 with C-terminal His tag) (mouse, UniProt Q9Z139 30-406); assay: ELISA, MusROR1-His coated at 2 µg/mL, goat anti-human Fc-HRP, OD450
T4 construct: range 30-406; Expressed in HEK293; also called mouse ROR1 antigen protein; not shown: C-terminal His tag
T4 sequence (Q9Z139 30-406 limits assumed): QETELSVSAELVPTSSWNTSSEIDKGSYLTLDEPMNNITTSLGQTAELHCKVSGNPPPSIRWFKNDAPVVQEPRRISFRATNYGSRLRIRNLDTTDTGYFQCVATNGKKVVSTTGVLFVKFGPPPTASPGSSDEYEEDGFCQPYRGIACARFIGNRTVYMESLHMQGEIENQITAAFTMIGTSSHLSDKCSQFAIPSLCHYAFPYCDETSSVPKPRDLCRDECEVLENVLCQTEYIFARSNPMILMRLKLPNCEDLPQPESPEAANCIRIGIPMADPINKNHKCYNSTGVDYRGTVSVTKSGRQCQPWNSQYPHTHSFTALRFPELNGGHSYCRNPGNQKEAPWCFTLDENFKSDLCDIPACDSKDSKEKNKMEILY
Procedure: as §3, with “MusROR1-His” for “huROR2-His”, “TMBS-1000-01)” for “TMBS-1000-0)”

EC50 [1]: 6.3 ng/mL
B1: B62-H2L3 (antibody, human IgG1, kappa)
heavy: not shown
light: DIQMTQSPSSLSASVGDRVTITCVTSIDIDDDVNWYQQKPGKAPKLLISAGNTLRPGVPSRFSGSGSGTDFTFTISSLQPEDIATYYCLQSDNLPYTFGGGTKLEIKRTVAAPSVFIFPPSDEQLKSGTASVVCLLNNFYPREAKVQWKVDNALQSGNSQESVTEQDSKDSTYSLSSTLTLSKADYEKHKVYACEVTHQGLSSPVTKSFNRGEC

EC50 [1]: 6.27 ng/mL
B2: B62-H2L2 (antibody, human IgG1, kappa)
heavy: not shown
light: B1 light with M4L, T22R

EC50 [2]: 6.24 ng/mL
B3: B62-H3L4 (antibody, human IgG1, kappa, V domains shown)
VH: EVQLVESGGGLVQPGGSLRLSCAASGFTFSSYVMSWVRQAPGKGLEYVATINSNGGNTYYADSVKGRFTISRDNSKNTLYLQMGSLRAEDTAMYYCARDSLGLRRRDYAMDYWGQGTTVTVSS
VL: DIQMTQSPSSLSASVGDRVTITCQTSIDIDDDVNWYQQKPGKAPKLLISAGNTLETGVPSRFSGSGSGTDFTFTISSLQPEDIATYYCLQSDNLPYTFGGGTKLEIKR

EC50 [2]: 8.48 ng/mL
B4: B62-H2L4 (antibody, human IgG1, kappa, V domains shown)
VH: B3 VH with Y47L, A61P, S75A
VL: B3 VL

EC50 [1]: 7.1 ng/mL
B5: B62-H1L1 (antibody, human IgG1, kappa, V domains shown)
VH: B3 VH with A40T, G44R, Y47L, A61P, S75A, G84S
VL: B3 VL with M4L, T22R, Q24V, E55R, T56P, G64S, S67Y, L78M

EC50 [1]: 7.88 ng/mL
B6: B62-H1L2 (antibody, human IgG1, kappa, V domains shown)
VH: B3 VH with A40T, G44R, Y47L, A61P, S75A, G84S
VL: B3 VL with M4L, T22R, Q24V, E55R, T56P

EC50 [2]: 6.59 ng/mL
B7: B62-H3L2 (antibody, human IgG1, kappa)
heavy: not shown
light: B1 light with M4L, T22R

EC50 [1]: 5.58 ng/mL | EC50 (read off the curve) [3]: ~6 ng/mL | Kd [4]: 0.984 nM | koff [4]: 0.000373 s⁻¹ | kon [4]: 379000 M⁻¹ s⁻¹ | Kd [5]: 0.0639 nM | koff [5]: 7.74e-05 s⁻¹ | kon [5]: 1.21e+06 M⁻¹ s⁻¹ | t 1/2 [5]: 2.49 h | binding result [6]: no binding (tested: 1 µg/mL) | EC50 [7]: 8.03 ng/mL | EC50 [2]: 5.46 ng/mL | EC50 (read off the curve) [8]: ~70 ng/mL | EC50 (read off the curve) [9]: ~4 ng/mL
B8: B62 (chimeric antibody) (antibody, human IgG1, kappa, V domains shown)
VH: DVKLVESGGGLVQPGGSLKLSCAASGFTFSSYVMSWVRQTPDKRLELVATINSNGGNTYYPDSVKGRFTISRDNAKNTLYLQMSSLKSEDTAMYYCARDSLGLRRRDYAMDYWGQGTSVTVSS
VL: DIVLTQSPASLSMAIGEKVTIRCVTSIDIDDDVNWYQQKPGKPPKLLISAGNTLRPGVPSRFSSSGYGTDFVFTIENMLSEDVADYYCLQSDNLPYTFGGGTKLEIKR
notes: ExpiCHO expression
